Source: paper PMC10320249 (eBioMedicine, 2023)
Values belong to the binder of their own block, whether it stands above or below them.

Columns and labels:
[1] = target: CD38 expressed on the plasma membrane of tumour cell lines (Homo sapiens, UniProt P28907); test: cell-based or functional assay
[2] = target: recombinant human CD38 (soluble CD38) (Homo sapiens, UniProt P28907); test: BLI

CD38 cyclase activity on Daudi cells (NGD+ to cGDPR), EC50 [1]: 0.419 µg/mL
CD38 hydrolase activity on Daudi cells (ε-NAD+ to ε-ADPR), EC50 [1]: 0.335 µg/mL
Kd [2]: 1.1 nM
B1: HexaBody-CD38 (GEN3014), hexamerization-enhanced human IgG1 with the E430G Fc mutation (antibody, V domains shown)
VH: QVQLVQSGAEVKKPGSSVKVSCKAFGGTFSSYAISWVRQAPGQGLEWMGRIIRFLGIANYAQKFQGRVTLIADKSTNTAYMELSSLRSEDTAVYYCAGEPGERDPDAVDIWGQGTMVTVSS
VL: DIQMTQSPSSLSASVGDRVTITCRASQGIRSWLAWYQQKPEKAPKSLIYAASSLQSGVPSRFSGSGSGTDFTLTISSLQPEDFATYYCQQYNSYPLTFGGGTKVEIK

CD38 cyclase activity on Daudi cells, EC50 [1]: 0.179 µg/mL
CD38 hydrolase activity on Daudi cells, EC50 [1]: 0.028 µg/mL
Kd [2]: 3.9 nM
B2: daratumumab (antibody, V domains shown)
VH: EVQLLESGGGLVQPGGSLRLSCAVSGFTFNSFAMSWVRQAPGKGLEWVSAISGSGGGTYYADSVKGRFTISRDNSKNTLYLQMNSLRAEDTAVYFCAKDKILWFGEPVFDYWGQGTLVTVSS
VL: not shown
